Measurements from the nanobody polyreactivity screen of Harvey et al. (2022).

Assay: yeast display, Sf9 membrane polyspecificity reagent, FACS + sequencing; frameworks hold sequencing errors
Outline: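 Galactose induction of a Saccharomyces cerevisiae BJ5465 synthetic nanobody display library ran 36–48 hours. The cells were then stained for 1 hour at 4 °C with 10% biotinylated, detergent-solubilized Sf9 membrane reagent, pulled down on streptavidin microbeads and FACS-sorted into low and high (top ~1%) gates on expression and reagent-binding fluorescence. Labels for polyreactivity follow the gate of origin.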

| Sequence | polyreactivity (PSR sort gate) |
| --- | --- |
| QVQLVESGGGLVQAGGSLRLSCVASGSIFGSYAMGWYRQAPGKERELVASISDSGGSTDYADSVKGRFTISRDNAKNTVYLQMHSLKPEDTAVYYCAADDFSGYVTEYDYWGQGTQVTVSS | low polyreactivity |
| QVQLEESGGGLVQAGGSLRLSCAASGFNFRKNVMGWYRPAPGKERELVAAISAPGGSTYYAHSVKGRFTISRDNGKNTGYLQMYCLKPEDPAVYFCKTDGYLYQYDYWGQGTQVTVSS | high polyreactivity |
| QVQLQESVGGLVQACGSQRLICAASGYIFSHQYMGCYRQAPGKERELVASMSPGATTNYADRVKGRFTISRDNAKNTVYLQMNSLKTEDTAVYYYAVYQILDRRLSYWGQGTQVTVSC | high polyreactivity |
| QVQLVESGGGLVQAGGSLRLSCAATGSIFVGYVMGWYRQAAGKERELVAAISRSGGRTYYADSVKGRFTISRDNAKNTVYLQMNSLKPEDTAVYYCAVRHRFYTAGYDYWGQGTQVTVSS | low polyreactivity |
| QVQLVESGGGLVQAGGSLRLSCAASGSTFYDNTMGWYRQPPGKERELVAVITTDGDRTYYADSVKGRFTISRDNAKNTVYLQMKSLKPEDTAVYYCNARRAYWVVYPGDDYWGQGTQVSVSS | low polyreactivity |
| QVQLVESGGGLVQAGGSLRLSCAASGFTCTYYAMGWYRQAPGKERELVAAITRGGITNYADSVKGRFTISRDNAKNTVYLQMNSLKPEDTAVYYCAADYWNFNWRYKLYRPYDYWGQGTQVTVSS | high polyreactivity |
| QVQLVESGGGLVQAGGSLRLSCAASGSTLVIYAMGWYRQAPGKERELVAAISRGGTTYYADSVKGRFTISRDNAKNTVYLQMNSLKPEDTAVYYCAADARVKRYYFRKSGYWGQGTQVTVSS | high polyreactivity |
| QVQLVESGGGLVQAGGSLRLSCAASGSIFNRYTMGWYRQAPGKEREFVAAIRNSGSRTYYADSVKRRFTISRDNAKNTVYLQMNSLKPEDTAVYYCAADGPLISSESYYWGQGTQVTVSS | low polyreactivity |
| QVQLVESGGGLVQAGGSLRLICAASGFIFGGYAMGWYRQAHGKERELVAAISSSGGSTYYADSVKGRFTISRDNAKNTVYLQMNSLKPEDTAVYYCAADRYYYRGRYYGYTREFDYWGQGTQVTVSS | high polyreactivity |
| QDQLVESGGGLVQAGGSLRLSCAASGSIFDPYTMGWYRQAPGKERELVAAINWSGGSTSYADSVKGRFTISRDNAKNPVYLQMNSLKPEDTAVYYCNADPHGYYGYGYDYWGQGTQVTVSS | low polyreactivity |
| QVQLVESGGGLVQAGGSLRLSCAASGSIFYGNGMGWYRQAPGKERELVAVISVSGGRTFYADSVKGRFTISRDNAKNTVYLQMNSLKPEDTAVYYCATRTYRVDPEFGYWGQGTQVTVSS | high polyreactivity |
| QVQLVESGGGLVQAGGSLRLSCAASGNILWFNAMGWYRQAPGKERELVASITSSGGRTYYADSVKGRFTISRDNAKNTVYLQMNSLKPEETAVYYCAAEYYYGWTYSGGLGFLGYNYWGQGTQVTVSS | low polyreactivity |
| QVQLVESGGGLVQAGGSLRLSCAASGFTFYHYAMGWYRQAPGKERELVAAISRSGGSTYYADSVKGRFTISRDNAKNTVYLQMNSLKPEDTAVYYCSKVLRAKNSFDYWGQGTQVTVSS | high polyreactivity |
| QVQLVESGGGLVQAGGSLRLSCAASGLTFNFYAMGWYRQAPGKEREFVAAISRSGGSTHYADSVKGRFTISRDNAKYTVYLQMNSLKPEDTAVYYCAADGGRKNYDYWGQGTQVTVSS | high polyreactivity |
| QVQLVEKGGGLVQAGGSLRLSCAPSGGLFSKNAMGCYRQAPGKVRELVAGISSGGTTYYADSVKGRFTISRDNAKNTGYLQMNSLKPEDSAVYYCAVPYYRRLGPLNDSWGQGTQVTVSS | low polyreactivity |
| QVQLEESGGGLVQAGGSLRLTCAASGSTFRYYALGWYRQAPGKERELVAAISGSGGRTYYADSVKGRFTISRDNAKNTVYLQMNSLKPEDTEVYYCNTRGRRTDYDYWGQGTQVTVSS | high polyreactivity |
| QVQLVESGGGLVQAGGSLRLSCAASGLTFWDYAMGWYRQAPGKERELVAGINTRGTSTYYADSVKGRFTISRDNAKNTVYLQMNSLKPEDTAVYYCAAEFFGYWYGIQYDYWGQGTQVTVSS | high polyreactivity |
| QVQLLHSGGGKVQAGGRLRLSCAASGFIFCYYAMGWYRQAPGKERELVATISSGGNTYYADSVKGRFTISRDNAKNTVYLQMNSLKPEDTAVYYCAARWGVRPFYSTQYRYYYWGQGTQVTVSS | high polyreactivity |
| QVQLVESGGGLVQEGGSLRLSCAASGGTFWLYTMGWYRQAPGKERELVAAITKSGGSTYYADSVKGRFTISRDNAKNTVYLQMNSLKPEDTAVYDCAARYSVYRDGYYWGQGTQVTVSS | high polyreactivity |
| QVHLVESGGVLVQAGGRLRLSCAAYGNIIGFNAMGWYRQAPGTERELVAAINSGGSTYYPDSVKGRFTISRDNAKNSVYLQMNSLKPEDSAVYYCAARVRIRGGGYDDWGQGTQVTVSS | high polyreactivity |
| QVQRVESGGGLVQSGGSLRLSCAASGRIFYLYARGWNSQAPGKERELVAAITWSGGSTTYADSVKGRFTISRDNAKNTVYLQMNSLKPEDTAVYYCNADGWSFPSFSPMDYWGQGTQVTVSS | low polyreactivity |
| QVQLVESGGGLVQAGGSLRLSCAASGFIFVANAMGWYRQAPGKEREFFAAISSSGGRTYYADSVKGRFTISRDNAKNTVYLQMNSLKPEDTAVYYCAKDRVFSRRGFGYWGQGTQVTVSS | low polyreactivity |

| Sequence | polyreactivity (PSR sort gate) |
| --- | --- |
| QVQLVESGGGLDQAGGSLRLSCAASGITFPAYAMGLYRQAPGKEREWVAAITSGSSTNYADSVKGRFTISRDNAKNTVYLHLNSLKPEDTAVYYCAAQASYWGYRSGNRYGYWGQGTQVTVSS | high polyreactivity |
| QVQLVESGGGLVQAGGSLRLSCAASGFIFIYYAMGWYRQAPGKERELVATINGITGSTYYADSVKGRFTISRDNAKNTVYLQMNSLKPEDTAVYYCAKVPRKYRAWMDYWGQGTQVTVSS | high polyreactivity |
| VQLVESGGGLVQAGVSLRLSCAASGSTFRPYAMGWYRQAPGKERELVAAITGSGGSTYYADSVKGRFTISRDNAKNTVYLQMNSLKPEDTAVYYCNAVSTWRYYYWGQGTQVTVSS | high polyreactivity |
| QVQLVESGGGLVQAGGSLRLSCAASGITFDRYVMGWYRQAPGKERELVAAISWTGDSTYYADSVKGRFTISRDNAKNTVYLQMNSQKPEDTAVYYCAAEDLWYGYNYWGQGTQVTVSS | high polyreactivity |
| QVQLVESGGGLVQAGGSLRLSCAASGSTFGTYAMGWYRQAPGKERELVATISIGGITYYADSVKGRFTISRDNAKNTVYLQMNSLKPEDTAVYYCAKDVTDPTSRSDPSGDDYWGQGTQVTVSS | low polyreactivity |
| QVQLVESGGGLVQAGGSLRISCAASGRTFECYAMGWSRQAPGKERELVAAISSGGSTYYADSVKGRFTISRDNAKNTVYLQMNSLKPEDTAVYYCNVLSQQRTARYDYWGQGTQVTVSS | low polyreactivity |
| QVQLVESCGGLVQAGGSLRLSCAASGYTFGYYAMGWYRQAPGKERELVAAISWRGARTNYADSVKGRFTISRDNAKNNVYLQMNSLKPEDTAVYYCNAPKHNTVYTDRYDYWGQGTQVTVSS | high polyreactivity |
| QVQLVESGGGLVQAGGSLRLSCAASGSIFLTNAMGRYRQAPGKERELVAAIRSGGSTSYADSVKGRLTISRDNAKNTVYLQMNSLKPEDTAVYDCNAESDSRNYKVHPSGIYEYWGQGTQVTVSS | low polyreactivity |
| QVQLVESGGGLVQAGGSLRLSCAASGSIFLYYAMGWYRQAPGKERELVAGINRVGSTNYADSVKGRFTISRDNAKNTVYLQMNSLKPEDTAVYYCNKRGTRSRRRGYWGQGTQVTVSS | low polyreactivity |
| QVHLQERGGGLLQACGSQRLSCAASGSISEVQYMGWYRRAPGKEREFVAGIAPGATTYYADSVKCRFTISRDNAKNTVFLQMNSLNPEYTDVDYFEDRYVTETDHDYWGQGTQVTVCS | low polyreactivity |
| QVQHVESGGGLVQAGGSLRLSCAASGIIFSEYAMGWYRLAPGKERELVAVISRSGGRTYYADSVKGRFTISRDNAKNTVYFQMNSLKPEDTAVYYCAVVHKTFTGDYWGQGTQVTVSS | high polyreactivity |
| QVLLVESGGGLVQAGGSLRLSCAASGRTFVTNAMGWYTQAPGKERELVAGITRRGGSTYYADSVKGRFTISRDNAKNTVYLQMNSLKPEDTAVYYCARRGDTSTRYYYWGQGTQVTVSS | high polyreactivity |
| QVQLVESGVGLVQAGGSLRLSCAASGGIFFYYAMGWSRQAPGKERELVAAISYSGGSTYYADSVKGRFTISRDNAKHTVYLQMNSVKPDDTAVNYCAAVPDYYEYSPYDYWGQGTQVTVSS | low polyreactivity |
| QVQLGESGGGLVQAGGSLRLSCAASGRIFSYYAMGWYRPAPGKERELVAAISYRGSSTNYADSVKGRFTISRDNAKNTVYFQMNSLKPEDTAVYYCATKFFRTAYEYWGQGTQVTVSS | high polyreactivity |
| QVQLVESGGGLVQAGGSLRLSCAASGYTFDKYVMGWYRQAPGKERELVAAISRSGGRTYYADSVKGRFTISRDNAKNTVYLQMNSLKPEDTAVYYCNALWFYNGLSYEYWGQGTQVTVSS | high polyreactivity |
| QVHLVESGGGLVQAGGSLRLSCAASGRTFRSYAMGWYRQAPGKERELVAAISWSGGSTYYADSVKGRFTISRDNAKNTVYLQMNSLKPEDTAVYYCAASYFYFPYTSDEGYWGQGTQVTVSS | high polyreactivity |
| QVQLVESGGALDQAGGSLRLICAASGRIFWYNAMGWYRQAPGKERELVAGIRSGGSTNYADSVKGRFTISRDNAKNPVYLQMNSLKPEDTAVYYCAARRWRTQDRSHFYYWGQGTQVTVSS | low polyreactivity |
| QVQLVESGGGLVQAGGSLRLSCAASGRIFDWNMGWYRQAPGKDRELVAGITFSVDSTYYADSVKGRFTISRDNAKNTVYLQMNSLKPEDTAYWGQGTQVTVST | low polyreactivity |
| QVQLVESGGGLVQAGGSLRLSCAASGRTFPYNAMGWYRQAPGKERELVAAITSSGGSTYYADSVKGRFTISRDNAKNTVYLQMNSLKPEDTAVYYFAKGYYSPNYYYWGQGTQVTVSS | high polyreactivity |
| QVQLVESGGGLVQAGGSLRFSCAASGFTFVYYVMGWYRQAPGKERELVAAINAGGGSTYYADSVKGRFTISRDNAKNTVYLQMNSLKPEDTAVYYCNARVRLGRNWSSYYYWGQGTQVTVSS | high polyreactivity |
| QVQLVESGGGLVQAGGSLRLSCAASGRIFYLNAMGWYRQAPGKERELVAAISSRGSRTYYADSVKGRFTISRDNAKNTVYLQMNSLKPEDTAVYYCNVRQRKQPDTDDYWGQGTQVTVSS | high polyreactivity |
